In US20100184134A1 (SUTRO BIOPHARMA, published 2010):
Residue numbers refer to the chain shown, from its start. Names and notes keep the numbering of the source.

Columns and labels:
[1] = molecular target: T1, E. coli PheT subunit of phenylalanyl-tRNA synthetase (E. coli, UniProt P07395 1-795); assay: IMAC pull-down of cell-free produced PheRS(A294G)
T1 construct: also called PheT domain
T1 sequence: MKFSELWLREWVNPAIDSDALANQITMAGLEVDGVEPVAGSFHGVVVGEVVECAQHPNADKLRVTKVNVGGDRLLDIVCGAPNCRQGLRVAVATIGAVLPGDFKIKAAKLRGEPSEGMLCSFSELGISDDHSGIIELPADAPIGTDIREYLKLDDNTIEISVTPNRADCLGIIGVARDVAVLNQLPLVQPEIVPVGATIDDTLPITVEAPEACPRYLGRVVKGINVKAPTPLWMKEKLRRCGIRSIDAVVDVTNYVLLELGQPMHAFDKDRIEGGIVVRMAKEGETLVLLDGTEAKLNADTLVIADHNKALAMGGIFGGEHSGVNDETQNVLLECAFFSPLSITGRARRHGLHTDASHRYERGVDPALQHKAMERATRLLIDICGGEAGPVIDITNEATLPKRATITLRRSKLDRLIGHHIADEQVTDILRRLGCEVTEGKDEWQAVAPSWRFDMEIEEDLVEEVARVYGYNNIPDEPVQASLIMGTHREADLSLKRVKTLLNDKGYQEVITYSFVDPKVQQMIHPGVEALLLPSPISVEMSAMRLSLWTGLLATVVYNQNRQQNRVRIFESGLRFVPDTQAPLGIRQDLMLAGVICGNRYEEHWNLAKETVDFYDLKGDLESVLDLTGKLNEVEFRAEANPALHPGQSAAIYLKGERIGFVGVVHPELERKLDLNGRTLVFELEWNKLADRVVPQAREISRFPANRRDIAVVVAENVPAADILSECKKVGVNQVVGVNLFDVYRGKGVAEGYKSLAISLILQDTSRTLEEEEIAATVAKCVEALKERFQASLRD

PheT K = molecular target: T2, PheT K (E. coli, UniProt P07395 1-795); assay: IMAC co-purification after cell-free co-synthesis of PheS(A294G) and PheT variant
T2 construct: also called PheT R794K
T2 sequence: T1 sequence with R794K

PheT KV = molecular target: T3, PheT KV (E. coli, UniProt P07395 1-795); assay: as above
T3 construct: also called PheT R794K A15V
T3 sequence: T1 sequence with A15V, R794K

PheT MP = molecular target: T4, PheT MP (E. coli, UniProt P07395 1-795); assay: as above
T4 construct: also called PheT R794M R788P
T4 sequence: T1 sequence with R788P, R794M

PheT AP = molecular target: T5, PheT AP (E. coli, UniProt P07395 1-795); assay: as above
T5 construct: also called PheT R794A A791P
T5 sequence: T1 sequence with A791P, R794A

Measured: binding result

B1: 6X His-tagged E. coli PheS(A294G) subunit of phenylalanyl-tRNA synthetase (enzyme)
chain: MSHLAELVASAKAAISQASDVAALDNVRVEYLGKKGHLTLQMTTLRELPPEERPAAGAVINEAKEQVQQALNARKAELESAALNARLAAETIDVSLPGRRIENGGLHPVTRTIDRIESFFGELGFTVATGPEIEDDYHNFDALNIPGHHPARADHDTFWFDTTRLLRTQTSGVQIRTMKAQQPPIRIIAPGRVYRNDYDQTHTPMFHQMEGLIVDTNISFTNLKGTLHDFLRNFFEEDLQIRFRPSYFPFTEPSAEVDVMGKNGKWLEVLGCGMVHPNVLRNVGIDPEVYSGFGFGMGMERLTMLRYGVTDLRSFFENDLRFLKQFK
notes: also called 6XHisPheS(A294G); PheS(A294G) domain
binds: all assays above
